Where a chain is given by its changes, count along the chain named. In names and notes the source's numbering stands. Several values for one entry are separate records, joined by “and”; a condition that tells them apart may be missing. Identical values can stand only once.
Tests used:
[1] = target: T1, biotinylated α-cobratoxin from Naja kaouthia (Naja kaouthia, biotin through amine coupling (NHS-PEG4-Biotin), sites not stated); assay: BLI; details: both partners purified
T1 chain: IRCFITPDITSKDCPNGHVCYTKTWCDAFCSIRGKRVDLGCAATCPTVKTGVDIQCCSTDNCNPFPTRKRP

[2] = target: T2, biotinylated α-elapitoxin-Dpp2d from Dendroaspis polylepis (Dendroaspis polylepis (black mamba), UniProt C0HJD7); assay: BLI; […]; association at pH 7.4, dissociation at pH 5.5; 1:1 global fit; details: both partners purified
T2 sequence (C0HJD7 whole entry): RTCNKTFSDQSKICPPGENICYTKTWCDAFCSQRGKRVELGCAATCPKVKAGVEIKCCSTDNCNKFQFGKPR

[3] = target: T2, biotinylated α-elapitoxin-Dpp2d from …; assay: BLI; […]; association at pH 7.4, dissociation at pH 7.4; 1:1 global fit, […]; details: both partners purified
[4] = target: biotinylated α-bungarotoxin from Bungarus multicinctus (Bungarus multicinctus); assay: as above; details: both partners purified
Chain of biotinylated α-bungarotoxin from Bungarus multicinctus (Bungarus multicinctus) (P60615 22-95): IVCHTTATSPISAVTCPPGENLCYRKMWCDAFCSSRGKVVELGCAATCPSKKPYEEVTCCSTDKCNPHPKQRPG

[5] = target: T1, biotinylated α-cobratoxin from Naja …; assay: BLI; details: both partners purified
[6] = target: T3, biotinylated α-cobratoxin from Naja kaouthia (Naja kaouthia, UniProt P01391); assay: DELFIA (dissociation-enhanced lanthanide fluorescence immunoassay); details: one partner purified
[7] = target: T3, biotinylated α-cobratoxin from Naja …; assay: BLI; details: both partners purified
[8] = target: biotinylated α-bungarotoxin from Bungarus multicinctus (Bungarus multicinctus, UniProt P60615); assay: BLI; details: both partners purified
Chain of biotinylated α-bungarotoxin from Bungarus multicinctus (P60615 22-95): as above

B1: A01 Fab (Fab, V domains shown)
VH: QVQLVQSGAEVKKPGSSVKVSCKASGGTFSSYAISWVRQAPGQGLEWMGGIIPIFGTANYAQKFQGRVTITADESTSTAYMELRSLRSDDTAVYYCARDNLGYCSGGSCYSDYYYYYMDVWGQGTLVTVSS
VL: SYELTQPPSVSVAPGRTATITCEGDNIGQQIVHWYQQKPGQAPVAVISSDSDRPSGIPERFSGSNSGNTATLTISRVEAGDEADYYCQVWDSGSDHVVFGGGTKVTVL
[1]
  kon: 44000 M⁻¹ s⁻¹
[2]
  koff: 0.00295 s⁻¹
[3]
  kon: 84000 M⁻¹ s⁻¹

B2: E01 Fab (Fab, V domains shown)
VH: B1 VH
VL: NFMLTQPRSVSESPGKTVTISCTRSSGSIGSDYVHWYQQRPGSSPTTVIYEDNRRPSGVPDRFSGSIASSANSASLTISGLRPEDEADYYCQSYDSTTNHVVFGGGTKVTVL
[1]
  Kd: 6.6 ± 0.9 nM
  kon: 54000 M⁻¹ s⁻¹
[2]
  koff: 0.00049 s⁻¹
[3]
  Kd: 1.3 ± 0.7 nM
  koff: 0.00014 s⁻¹
  kon: 138000 M⁻¹ s⁻¹
[4]
  Kd: 271 ± 31.1 nM
  koff: 0.0173 s⁻¹
  kon: 23000 M⁻¹ s⁻¹

B3: D11 scFv (scFv, V domains shown)
VH: B1 VH
VL: NFMLTQPRSVSESPGKTVTISCTRSSGSIGSDYVHWYQQRPGSSPTTVIYEDNQRPSGVPDRFSGSIDSSSNSASLTISGLKTEDEADYYCQSYDRSNHEVVFGGGTKLTVL
[5]
  Kd: 44.4 nM
  koff: 0.00177 s⁻¹ and 0.00189 s⁻¹
  kon: 39900 M⁻¹ s⁻¹

B4: B11 Fab (Fab, V domains shown)
VH: B1 VH
VL: SYELTQPPSVSVAPGQTATITCGGHNIGSNIVHWYHQKPGQAPELVISHNTNRPSGIPERFSGSNSGSTATLTISRVEAVDEADYYCQVWDSSSEHVVFGGGTKVTVL
[1]
  Kd: 5.7 ± 1.1 nM
  kon: 59000 M⁻¹ s⁻¹
[2]
  koff: 0.00049 s⁻¹
[3]
  Kd: 1.4 ± 0.1 nM
  koff: 9e-05 s⁻¹
  kon: 69000 M⁻¹ s⁻¹

B5: A01 scFv with His95b (CDR-L3) substituted to alanine (scFv, V domains shown)
VH: B1 VH
VL: B1 VL with H96A
notes: also called A01-H95bA; source: E. coli BL21(DE3), in culture supernatant
[6]
  fold reduction of the pH 7.4/pH 5.8 ratio against the A01 scFv: ~3 fold

B6: A12 Fab (Fab, V domains shown)
VH: B1 VH
VL: B3 VL with R8H, I20F, S28R, G30V, S44A, R96S, H99A, E100Y, L109V
[1]
  Kd: 4.2 ± 0.9 nM
  koff: 0.00021 s⁻¹ and 0.00053 s⁻¹
  kon: 55000 M⁻¹ s⁻¹
[2]
  koff: 0.00036 s⁻¹
[3]
  Kd: 1.4 ± 1.2 nM
  koff: 0.00015 s⁻¹
  kon: 140000 M⁻¹ s⁻¹
[4]
  Kd: 202 ± 28.2 nM
  koff: 0.0093 s⁻¹
  kon: 21000 M⁻¹ s⁻¹

B7: A01 scFv with C-terminal 6xHis-FLAG extension (scFv, V domains shown)
VH: B1 VH
VL: B1 VL
notes: also called original A01 scFv; source: E. coli BL21(DE3); culture supernatant (DELFIA); purified (HisTrap, SEC)
[6]
  pH 7.4/pH 5.8 ratio of toxin remaining bound (TRF signal): ~12
  pH 7.4/pH 5.8 ratio of toxin remaining bound (fold-difference): ~13.4 fold

B8: A01 scFv (scFv, V domains shown)
VH: B1 VH
VL: B1 VL
[5]
  Kd: 52.2 nM
  kon: 43200 M⁻¹ s⁻¹

B9: D11 scFv with serine at position 32 (CDR-L1) and histidine at position 49 (FWR-2) (scFv, V domains shown)
VH: B1 VH
VL: B3 VL with Y33S, Y50H
notes: also called D11-Y32S-Y49H (name built from the text: serine at position His32 of D11-Y32H-Y49H); source: E. coli BL21(DE3), in culture supernatant
[6]
  binding result: binds

B10: A04 Fab (Fab, V domains shown)
VH: B1 VH
VL: SYELTQPPSMSVAPGQTARITCGGDYIGGESVHWYQQKPGRAPVAVVYDDTHRPSGIPERFSGANSGNTATLTISKVEAGDEADYYCQVWDVSSDHVVFGGGTKLTVL
[7]
  binding result: binds
[8]
  binding result: binds

B11: D11_Y49S scFv (scFv, V domains shown)
VH: B1 VH
VL: B3 VL with Y50S
notes: source: E. coli BL21(DE3)
[5]
  Kd: 48.8 nM
  koff: 0.00195 s⁻¹ and 0.00416 s⁻¹
  kon: 40000 M⁻¹ s⁻¹

B12: D11_E50A scFv (scFv, V domains shown)
VH: B1 VH
VL: B3 VL with E51A
notes: source: E. coli BL21(DE3)
[5]
  Kd: 158 nM
  koff: 0.00469 s⁻¹ and 0.0134 s⁻¹
  kon: 29700 M⁻¹ s⁻¹

B13: E01 Fab (Fab, V domains shown)
VH: B1 VH
VL: B2 VL
[7]
  binding result: binds

B14: B11 Fab (Fab, V domains shown)
VH: B1 VH
VL: B4 VL
[7]
  binding result: binds
[8]
  binding result: binds

B15: A04 Fab (Fab, V domains shown)
VH: B1 VH
VL: B10 VL
[1]
  Kd: 15.3 ± 14 nM
  kon: 62000 M⁻¹ s⁻¹
[2]
  koff: 0.00024 s⁻¹
[3]
  Kd: 0.6 ± 0.4 nM
  koff: 9e-05 s⁻¹
  kon: 161000 M⁻¹ s⁻¹

B16: D11 scFv with C-terminal 6xHis-FLAG extension (scFv, V domains shown)
VH: B1 VH
VL: B3 VL
notes: also called original D11; source: E. coli BL21(DE3); culture supernatant (DELFIA); purified (HisTrap, SEC)
[6]
  pH 7.4/pH 5.8 ratio of toxin remaining bound (TRF signal): ~1.3
  pH 7.4/pH 5.8 ratio of toxin remaining bound (fold-difference): ~1.2 fold

B17: G09 Fab (Fab, V domains shown)
VH: B1 VH
VL: SYELTQPPSVSVAPGRTATITCEGDNIGQQIVHWYRQKSDQAPVVVVYDGSRRPSGIPERFSGSNSGNTATLTISRVEAGDEADYYCQVWDITSDHVVFGGGTQLTVL
[1]
  Kd: 4.2 ± 2.8 nM
  kon: 71000 M⁻¹ s⁻¹
[2]
  koff: 0.00035 s⁻¹
[3]
  Kd: 1 ± 0.5 nM
  koff: 0.00015 s⁻¹
  kon: 156000 M⁻¹ s⁻¹

B18: 368_01_C05 Fab with the CDR-L3 glycosylation site at Asn95 removed (Fab, V domains shown)
VH: B1 VH
VL: B3 VL with R8H, G30A, D32T, S44A, R96S, N98S, H99G, E100S
notes: also called parent mAb; parental mAb
[7]
  binding result: binds

B19: A12 Fab (Fab, V domains shown)
VH: B1 VH
VL: B3 VL with R8H, I20F, S28R, G30V, S44A, R96S, H99A, E100Y, L109V
[7]
  binding result: binds

B20: C05 Fab, parental mAb 368_01_C05, with the N-glycosylation site of CDR-L3 removed (C05-NS) (Fab, V domains shown)
VH: B1 VH
VL: B3 VL with R8H, G30A, D32T, S44A, R96S, N98S, H99G, E100S
[1]
  Kd: 71.2 ± 5.4 nM
  koff: 0.00366 s⁻¹ and 0.00946 s⁻¹
  kon: 51000 M⁻¹ s⁻¹
[2]
  koff: 0.00072 s⁻¹
[3]
  Kd: 4.6 ± 0.47 nM
  koff: 0.00034 s⁻¹
  kon: 76000 M⁻¹ s⁻¹

B21: G09 Fab (Fab, V domains shown)
VH: B1 VH
VL: B17 VL
[7]
  binding result: binds
[8]
  binding result: binds

B22: A01 scFv with His34 (CDR-L1) substituted to alanine (scFv, V domains shown)
VH: B1 VH
VL: B1 VL with H33A
notes: also called A01-H34A; source: E. coli BL21(DE3), in culture supernatant
[6]
  pH 7.4/pH 5.8 ratio of toxin remaining bound (TRF signal): 1.6

B23: D11_Y49A scFv (scFv, V domains shown)
VH: B1 VH
VL: B3 VL with Y50A
notes: source: E. coli BL21(DE3)
[5]
  Kd: 68.8 nM
  koff: 0.0018 s⁻¹ and 0.00355 s⁻¹
  kon: 26200 M⁻¹ s⁻¹
